Eleven molecules from patent US8106168B2, “Metalloproteinase binding proteins” (Dyax Corp., priority 2005, dated 2012) can be followed below.

Sequences and labels used below:
B1: M0040-B06: Fab that binds human MMP-14; DNA LV SEQ ID NO: 88, HV SEQ ID NO: 89 (antibody, V domains shown)
VL: QYELTQPPSASGTPGQRVTISCSGSSSNIGRNYVYWYQQVPGTAPKLLIYSNNQRPSGVPDRFSGSKSGTSASLVISGLRSEDEADYYCAAWDASLRGVFGGGTKLTVL
VH: EVQLLESGGGLVQPGGSLRLSCAASGFTFSVYPMVWVRQAPGKGLEWVSYISPSGGFTFYADSVKGRFTISRDNSKNTLYLQMNSLRAEDTAVYYCARVPGGSRQDFDIWGQGTMVTVSS
modifications: Synthetically generated oligonucleotide
B2: M0039-D02: Fab that binds human MMP-14; DNA LV SEQ ID NO: 70, HV SEQ ID NO: 71 (protein)
chain 1: QDIQMTQSPSSLSASVGDRVTITCRASQSISSYLNWYQQKPGKAPKLLIYDASNLETGVPSRFSGSGSGTDFTFTISSLQPEDIATYYCQQFDDLPLTFAGGTKVELKRT
chain 2: EVQLLESGGGLVQPGGSLRLSCAASGFTFSLYVMIWVRQAPGKGLEWVSGIYSSGGDTYYADSVKGRFTISRDNSKNTLYLQMNSLRAEDTAVYYCARGQQLGGGAFDIWGQGTMVTVSS
modifications: Synthetically generated oligonucleotide
B3: M0039-G07: Fab that binds human MMP-14; DNA LV SEQ ID NO: 76, HV SEQ ID NO: 77 (antibody, V domains shown)
VL: QDIQMTQSPGTLSLSPGERATLSCRASQSVNSRFLAWYQQKPGQAPRLLIYSTSTRATGIPDRFSGSGSGTDFTLTISRLEPEDFAVYYCQRYGSSPTWTFGQGTKVEIK
VH: EVQLLESGGGLVQPGGSLRLSCAASGFTFSRYVMDWVRQAPGKGLEWVSRISPSGGHTDYADSVKGRFTISRDNSKNTLYLQMNSLRAEDTAVYYCARETVRGVYFDYWGQGTLVTVSS
modifications: Synthetically generated oligonucleotide
B4: M0040-A03: Fab that binds human MMP-14; DNA LV SEQ ID NO: 80, HV SEQ ID NO: 81 (antibody, V domains shown)
VL: QDIQMTQSPSFVSASVGDRVTISCRASHNINTWLAWYQQKPGKAPNLLIYSASNLQGGVPSRFSGSGSGTDFTLTISSLQPGDFATYYCQQASSFPITFGQGTRLEIK
VH: EVQLLESGGGLVQPGGSLRLSCAASGFTFSNYMMIWVRQAPGKGLEWVSWISPSGGYTFYADSVKGRFTISRDNSKNTLYLQMNSLRAEDTAVYYCARGYYDILTGMVGGGAFDIWGQGTTVTVSS
modifications: Synthetically generated oligonucleotide
B5: M0040-C10: Fab that binds human MMP-14; DNA LV SEQ ID NO: 92, HV SEQ ID NO: 93 (antibody, V domains shown)
VL: QDIQMTQSPATLSASVGDRVTITCRASQTISTYLNWYQHKPGKAPELLIYAASSLQSGVPSRFSGSGSGTDFTLRISSLQPEDFATYYCQQSYTTPWTFGQGTKVEIK
VH: EVQLLESGGGLVQPGGSLRLSCAASGFTFSRYMMVWVRQAPGKGLEWVSSIVSSGGKTWYADSVKGRFTISRDNSKNTLYLQMNSLRAEDTAMYYCARWDWGPFDYWGQGTLVTVSS
modifications: Synthetically generated oligonucleotide
B6: M0038-H06: Fab that binds human MMP-14; DNA LV SEQ ID NO: 66, HV SEQ ID NO: 67 (antibody, V domains shown)
VL: QDIQMTQSPGTLSLSPGEGATLSCRASQIINPFYVAWYQQRPGQAPRLLIYASSRRAGGIPDRFSGSASGTDFTLTISRLEPEDFAVYYCQYFYNSMWTFGQGAKVEIR
VH: EVQLLESGGGLVQPGGSLRLSCAASGFTFSWYNMTWVRQAPGKGLEWVSRISPSGGDTFYADSVKGRFTISRDNSKNTLYLQMNSLRAEDTAVYYCARAAIAPRPYGMDVWGQGTTVTVSS
modifications: Synthetically generated oligonucleotide
B7: M0038-E12: Fab that binds human MMP-14; DNA LV SEQ ID NO: 60, HV SEQ ID NO: 61 (antibody, V domains shown)
VL: QDIQMTQSPSSLSASVGDSVTITCRASQNINSYLNWYQQKPGKAPKLLIYVASNLQRGVPSRFGGSGSGTDFTLTITSLQPEDFATYSCQQTYSTPLTFGGGTKVEIK
VH: EVQLLESGGGLVQPGGSLRLSCAASGFTFSKYWMMWVRQAPGKGLEWVSVIYPSGGITYYADSVKGRFTISRDNSKNTLYLQMNSLRAEDTAVYYCARLPSWGFDALDIWGQGTMVTVSS
modifications: Synthetically generated oligonucleotide
B8: M0039-B07: Fab that binds human MMP-14; DNA LV SEQ ID NO: 68, HV SEQ ID NO: 69 (antibody, V domains shown)
VL: QDIQMTQSPLSLSASVGDRVTITCRASQGISNYLAWYQQKPGKVPKLLIYAASTLQSGVPSRFSGSGSGTDFTLTISSLQPEDVATYYCQKYNSARLTFGGGTKVEIK
VH: EVQLLESGGGLVQPGGSLRLSCAASGFTFSLYPMLWVRQAPGKGLEWVSGISPSGGQTFYADSVKGRFTISRDNSKNTLYLQMNSLRAEDTAVYYCARMAYYSGYFDLWGRGTLVTVSS
modifications: Synthetically generated oligonucleotide
B9: M0039-G05: Fab that binds human MMP-14; DNA LV SEQ ID NO: 74, HV SEQ ID NO: 75 (antibody, V domains shown)
VL: QDIQMTQSPSFLSASIGDRVTITCRASQGINTFLAWYQQKPGIAPKLLIYAASTLQSGVPSRFSGSGSGTEFTLTISSLQPEDFATYYCQQLNGYRSFGQGTRLEMK
VH: EVQLLESGGGLVQPGGSLRLSCAASGFTFSNYEMGWVRQAPGKGLEWVSWIYSSGGYTSYADSVKGRFTISRDNSKNTLYLQMNSLRAEDTATYYCARDPYYYDSSGYYYYYYYYMDVWGKGTTVTVSS
modifications: Synthetically generated oligonucleotide
B10: M0039-D10: Fab that binds human MMP-14; DNA LV SEQ ID NO: 72, HV SEQ ID NO: 73 (antibody, V domains shown)
VL: QDIQMTQSPDTVSFSPGERASLSCRASQSVRSDLAWYQQKPGQAPRLLIYGASNRATGIPVRFSGSGSGTDFTLTISRLEPEDFAVYYCQQYGSSPLFTFGPGTKVDIK
VH: EVQLLESGGGLVQPGGSLRLSCAASGFTFSMYNMAWVRQAPGKGLEWVSWIYSSGGLTLYADSVKGRFTISRDNSKNTLYLQMNSLRAEDTAVYYCAKGSNTYYFDASGLGAFNMWGQGTMVTVSS
modifications: Synthetically generated oligonucleotide
B11: M0030-D08: Fab that binds human MMP-14; DNA LV SEQ ID NO: 8, HV SEQ ID NO: 9 (antibody, V domains shown)
VH: EVQLLESGGGLVQPGGSLRLSCAASGFTFSIYQMYWVRQAPGKGLEWVSSIVPSGGLTKYADSVKGRFTISRDNSKNTLYLQMNSLRAEDTAVYYCARERLRYFDWSDRVGESGDYWGQGTLVTVSS
VL: QDIQMTQSPSSLSASVGDRVTMTCRAGQNIKSYLNWYQQKPGKAPQVLIYAASTLQSGVSSRFRGSGSGTHFTLTISDLQPGDSATYYCQQSFSTPRSFGQGTSWRS

This assay deals with MMP-14 (Homo sapiens, UniProt P50281). The assay is described as follows: Selection and phage ELISA screening of anti-MMP-14 Fabs. The settings on record: Fab from FAB310 phage display library. In kind it is binding. As to the method: Strategy I: A 100-fold excess of the FAB310 library (e.g., an amount of the library that should contain 100 copies of each library member) was depleted of streptavidin-binding antibodies by incubating the library with 200 μL of streptavidin beads for 1 hour at room temperature (RT) with rotation. 500 nM of biotinylated MMP-14 was coupled to streptavidin beads by incubation with 100 μL of streptavidin beads. The MMP-14 beads were then incubated with the streptavidin-depleted library for 1 hour at RT with rotation. The beads were then rinsed three times with 2% MTRIS/0.1% Tween, transferred to a fresh tube and washed an additional three times with 2% MTRIS/0.1% Tween, and transferred to a fresh tube and washed a final time with Round 1 TRIS buffer (50 mM TRIS; 50 mM CaCl2; 150 mM NaCl, pH 7.5).
MMP-14 binding antibodies were eluted from the beads by re-suspension in 1 mL 2% MTRIS containing 2.5 μM TIMP-2 and incubation for 1 hour at RT with rotation. The beads were then washed three times with 2% MTRIS/0.1% Tween, transferred to a fresh tube and washed three times with TRIS/0.1% Tween, and transferred to a fresh tube and washed a final time with TRIS. 1 mL output was used for infection of 9 mL TG1 bacteria (grown to OD600=0.5). The beads were further eluted by suspension in 1 mL 100 mM TEA for 10 minutes. The supernatant was neutralized with 500 μl TRIS/HCl pH 7.5. 1 mL of the second elution was used for infection of 9 mL TG1 bacteria (grown to OD600=0.5).
Two additional rounds of selection were carried out under the same conditions as the first round, except that the streptavidin beads were loaded with 100 nM biotinylated MMP-14 and the number of washes were doubled (6 times with 2% MTRIS/0.1% Tween, 6 times with TRIS/0.1% Tween and 2 times with TRIS), and Round 2/3 Tris buffer (50 mM TRIS; 5 mM CaCl2; 150 mM NaCl pH=7.5) was used for incubation and wash.
TIMP-2 was coupled to carboxylic beads, then complexed with a combination of biotinylated MMP-14 (500 nM each). The complexed beads were incubated with a 100 fold excess of FAB310 library that had been previously depleted by incubation with streptavidin beads and carboxylic beads. Elution/washing was carried out as for Strategy I.
Two additional rounds of selection were carried out, essentially as described for Strategy I, except that only 100 nM of each of MMP-14 were used in the bead complexes.
384-well plates were coated with biotinylated BSA (2 μg/ml in 50 mM TRIS; 5 mM CaCl2; 150 mM NaCl, pH 7.5), then washed 3 times with 50 mM TRIS; 5 mM CaCl2; 150 mM NaCl, pH 7.5; 0.1% Tween. Streptavidin was captured on the coated plates by incubation with 10 μg/mL streptavidin in 50 mM TRIS; 5 mM CaCl2; 150 mM NaCl pH 7.5; 0.5% Gelatin, followed by a wash with 50 mM TRIS; 5 mM CaCl2; 150 mM NaCl pH=7.5; 0.1% Tween. On the day the assay was to be performed, biotinylated MMP-14 (1 μg/ml) was captured in 50 mM TRIS; 5 mM CaCl2; 150 mM NaCl, pH 7.5.
95 clones were picked from each of Round 2 and Round 3 of each selection strategy, producing 12 masterplates. ELISA was run on the MiniTrak-5 deck according to SOP.
Background: An ELISA detects its analyte on a solid surface through an enzyme-linked reagent.
In the case of B1, the “bind to human MMP-14” value is given as “bind to human MMP-14”. Consider B2, for which the “bind to human MMP-14” value is recorded as “bind to human MMP-14”. The value for B3 was “bind to human MMP-14”. In the case of B4, the “bind to human MMP-14” value is “bind to human MMP-14”. As to B5, the “bind to human MMP-14” value is recorded as “bind to human MMP-14”. The value for B6 was “bind to human MMP-14”; that for B7 was “bind to human MMP-14”; that for B8 was “bind to human MMP-14”. The value for B9 was “bind to human MMP-14”; that for B10 was “bind to human MMP-14”; that for B11 was “bind to human MMP-14”.
